Results from patent US10920254B2, “Methods and materials for producing 5 and 7-carbon monomers” (INVISTA North America S.á.r.l., priority 2015, dated 2021).

B1: SEQ ID NO: 6: Segniliparus rotundus carboxylate reductase, N-terminal HIS tagged (protein, listed as Segniliparus rotundus)
chain: MTQSHTQGPQASAAHSRLARRAAELLATDPQAAATLPDPEVVRQATRPGLRLAERVDAILSGYADRPALGQRSFQTVKDPITGRSSVELLPTFDTITYRELRERATAIASDLAHHPQAPAKPGDFLASIGFISVDYVAIDIAGVFAGLTAVPLQTGATLATLTAITAETAPTLFAASIEHLPTAVDAVLATPSVRRLLVFDYRAGSDEDREAVEAAKRKIADAGSSVLVDVLDEVIARGKSAPKAPLPPATDAGDDSLSLLIYTSGSTGTPKGAMYPERNVAHFWGGVWAAAFDEDAAPPVPAINITFLPLSHVASRLSLMPTLARGGLMHFVAKSDLSTLFEDLKLARPTNLFLVPRVVEMLYQHYQSELDRRGVQDGTREAEAVKDDLRTGLLGGRILTAGFGSAPLSAELAGFIESLLQIHLVDGYGSTEAGPVWRDGYLVKPPVTDYKLIDVPELGYFSTDSPHPRGELAIKTQTILPGYYKRPETTAEVFDEDGFYLTGDVVAQIGPEQFAYVDRRKNVLKLSQGEFVTLAKLEAAYSSSPLVRQLFVYGSSERSYLLAVIVPTPDALKKFGVGEAAKAALGESLQKIARDEGLQSYEVPRDFIIETDPFTVENGLLSDARKSLRPKLKEHYGERLEAMYKELADGQANELRDIRRGVQQRPTLETVRRAAAAMLGASAAEIKPDAHFTDLGGDSLSALTFSNFLHDLFEVDVPVGVIVSAANTLGSVAEHIDAQLAGGRARPTFATVHGKGSTTIKASDLTLDKFIDEQTLEAAKHLPKPADPPRTVLLTGANGWLGRFLALEWLERLAPAGGKLITIVRGKDAAQAKARLDAAYESGDPKLAGHYQDLAATTLEVLAGDFSEPRLGLDEATWNRLADEVDFISHPGALVNHVLPYNQLFGPNVAGVAEIIKLAITTRIKPVTYLSTVAVAAGVEPSALDEDGDIRTVSAERSVDEGYANGYGNSKWGGEVLLREAHDRTGLPVRVFRSDMILAHQKYTGQVNATDQFTRLVQSLLATGLAPKSFYELDAQGNRQRAHYDGIPVDFTAESITTLGGDGLEGYRSYNVFNPHRDGVGLDEFVDWLIEAGHPITRIDDYDQWLSRFETSLRGLPESKRQASVLPLLHAFARPGPAVDGSPFRNTVFRTDVQKAKIGAEHDIPHLGKALVLKYADDIKQLGLL
modifications: N-terminal His tag
notes: Segniliparus rotundus carboxylate reductase, N-terminal HIS tagged
B2: BDIGENE #246: Clostridium viride 5-hydroxyvalerate CoA transferase (protein)
chain: MAQFVTAQEAVKHIPNGSRVVLAHSTGEPRTLVKAMVENYEQYKDVEVCHMLGLGPYEYTNPEMKGHLWHNSLFMGPGGRKAFNENRLDFTPGYFCDSIKFFREGYLPVDVLMMTVSPPDKHGYVTCGITCDFTMPAFECAKMVIVQVNKNMPRTFGQTAIHLDDIDFAVEADDPLYGSVPGELTDIDRKIGEHCASLINDGACLQLGIGGIPNAVLTYLTEKNDMGIHSEMLSDGILQLIKAGNINNSKKQIHVGKSAVTFLNGSQELYDYVDDNPSVEFYPVDYINDPYVIGKNDNMVSVNSALSVDLMGQIVADNLSATRQISGAGGFVDFVRGATISKGGISIVAMPSTAAGGKASRIEMMFDAGRPITLTRFESFYVVTEYGIAKMRGNSLRTRARQLIEIAHPDFRDEMKEFYEKRFGEKY
modifications: Clostridium viride
notes: Clostridium viride 5-hydroxyvalerate CoA transferase

Legend:
Assay type in all cases: biochemical
[1] = carboxylate reductase enzyme activity assay (pimelate to pimelate semialdehyde), NADPH consumption at 340 nm; details: purified enzyme enhanced by gene product of sfp; 2 mM pimelate, 1 mM ATP, 1 mM NADPH, pH 7.5, room temperature, 20 min; FIG. 8
Method: A nucleotide sequence encoding a HIS-tag was added to the nucleic acid sequences from Segniliparus rugosus and Segniliparus rotundus that encode the carboxylate reductases of SEQ ID NOs: 4 (EFV11917.1) and 6 (ADG98140.1), respectively (see FIG. 6C and FIG. 6E), such that N-terminal HIS tagged carboxylate reductases could be produced. Each of the modified genes was cloned into a pET Duet expression vector along with a sfp gene encoding a HIS-tagged phosphopantetheine transferase from Bacillus subtilis, both under the T7 promoter. Each expression vector was transformed into a BL21[DE3] E. coli host and the resulting recombinant E. coli strains were cultivated at 37° C. in a 250 mL shake flask culture containing 50 mL LB media and antibiotic selection pressure, with shaking at 230 rpm. Each culture was induced overnight at 37° C. using an auto-induction media.
The pellet from each induced shake flask culture was harvested via centrifugation. Each pellet was resuspended and lysed via sonication, and the cell debris was separated from the supernatant via centrifugation. […]
Enzyme activity assays (i.e., from pimelate to pimelate semialdehyde) were performed in triplicate in a buffer composed of a final concentration of 50 mM HEPES buffer (pH=7.5), 2 mM pimelate, 10 mM MgCl2, 1 mM ATP, and 1 mM NADPH. […] The consumption of NADPH was monitored by absorbance at 340 nm. […]

[2] = carboxylate reductase enzyme activity assay (N7-acetyl-7-aminoheptanoate to N7-acetyl-7-aminoheptanal), NADPH consumption at 340 nm; details: purified enzyme enhanced by gene product of sfp; 2 mM N7-acetyl-7-aminoheptanoate, 1 mM ATP, 1 mM NADPH, pH 7.5, room temperature, 20 min; FIG. 10
Method: The activity of each of the N-terminal His-tagged carboxylate reductases of SEQ ID NOs: 3, 5, and 6 (see Examples 2 and 3, and FIG. 6B, FIGS. 6D-6E) for converting N7-acetyl-7-aminoheptanoate to N7-acetyl-7-aminoheptanal was assayed in triplicate in a buffer composed of a final concentration of 50 mM HEPES buffer (pH=7.5), 2 mM N7-acetyl-7-aminoheptanoate, 10 mM MgCl2, 1 mM ATP, and 1 mM NADPH. The assays were initiated by adding purified carboxylate reductase and phosphopantetheine transferase or the empty vector control to the assay buffer containing the N7-acetyl-7-aminoheptanoate then incubated at room temperature for 20 min. The consumption of NADPH was monitored by absorbance at 340 nm.

[3] = carboxylate reductase enzyme activity assay (pimelate semialdehyde to heptanedial), NADPH consumption at 340 nm; details: purified enzyme enhanced by gene product of sfp; 2 mM pimelate semialdehyde, 1 mM ATP, 1 mM NADPH, pH 7.5, room temperature, 20 min; FIG. 11
Method: The N-terminal His-tagged carboxylate reductase of SEQ ID NO: 6 (see Example 3 and FIG. 6E) was assayed using pimelate semialdehyde as substrate. The enzyme activity assay was performed in triplicate in a buffer composed of a final concentration of 50 mM HEPES buffer (pH=7.5), 2 mM pimelate semialdehyde, 10 mM MgCl2, 1 mM ATP, and 1 mM NADPH. The enzyme activity assay reaction was initiated by adding purified carboxylate reductase and phosphopantetheine transferase or the empty vector control to the assay buffer containing the pimelate semialdehyde and then incubated at room temperature for 20 min. The consumption of NADPH was monitored by absorbance at 340 nm.

[4] = coupled assay of 5-hydroxyvalerate CoA transferase and thiolase, LC-MS detection of acyl-CoAs; details: 1 mM acetyl-CoA, 1 mM 5-hydroxyvalerate, pH 6.8, 30° C.; no analytical standards, ions of expected molecular weight
Method: For each culture, expression plasmids were freshly transformed into BL21(DE3) (Agilent). Colonies from fresh agar plates were used to inoculate 20 ml LB in 250 ml flask overnight pre-culture. For all constructs except 237, ampicillin was used, for 237 kanamycin was required. After incubation overnight at 37° C. and 200 rpm, pre-cultures were used to inoculate (1:100) larger cultures, 350 ml LB, with respective antibiotic in […]. After 2.5 h of shaking with 200 rpm at 37° C., cultures reached OD600 in the range 0.5-0.7 at which point they were induced with 1 mM IPTG and the temperature of the culture was changed to 25° C. Incubation continued overnight. Cells were harvested the next day and stored at −20° C. until protein purification was performed.
To purify an overexpressed protein, a bacterial pellet from a 350 ml culture was resuspended in up to total 20 ml of Binding Buffer (20 mM Sodium phosphate pH 7.4, 500 mM Sodium chloride, 20 mM imidazole, 5% glycerol) and sonicated for 2 min with a microtip (amplitude 50%, 1 s pulse ON, 2 s OFF). Cell suspension was centrifuged with 20,000 G for 30 min at 4° C. As all the tested proteins were His-tagged, the purification with Immobilized Metal Affinity Chromatography was sufficient to ensure both necessary purity and amount for the enzymatic assays. […]

Molecule	acceptance of pimelate as substrate (NADPH consumption), confirmed against the empty vector control [1]	acceptance of N7-acetyl-7-aminoheptanoate as substrate (NADPH consumption), confirmed against the empty vector control [2]	acceptance of pimelate semialdehyde as substrate (NADPH consumption), confirmed against the empty vector control [3]	intermediate product 5-hydroxyvaleryl-CoA by LC-MS [4]
B1	accepted pimelate as substrate	accepted N7-acetyl-7-aminoheptanoate as substrate	accepted pimelate semialdehyde as substrate	
B2				detected in all samples containing both substrates and BDIGENE #246
